Article PMC4351158 (Structure (London, England : 1993), 2015)
Where no end group is shown, it is not given here. fluorescein = fluorescein, a fluorescent label on the peptide N-terminus

Tests used:
Assay in all cases: fluorescence polarisation
[1] = target: T1, wild-type DegS (residues 27-355, without the membrane anchor) (E. coli, UniProt P0AEE3 27-355)
T1 sequence (looked up): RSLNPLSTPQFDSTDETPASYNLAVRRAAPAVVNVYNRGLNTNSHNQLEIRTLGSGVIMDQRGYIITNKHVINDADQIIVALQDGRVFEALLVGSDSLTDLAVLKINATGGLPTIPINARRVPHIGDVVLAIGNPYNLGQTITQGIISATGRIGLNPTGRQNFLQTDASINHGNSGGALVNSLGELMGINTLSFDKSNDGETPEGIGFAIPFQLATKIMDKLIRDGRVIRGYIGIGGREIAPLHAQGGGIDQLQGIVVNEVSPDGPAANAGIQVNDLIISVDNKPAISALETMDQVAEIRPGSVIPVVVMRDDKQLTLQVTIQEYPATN

DegS H198P/I232A = target: T2, DegS H198P/I232A (E. coli, UniProt P0AEE3 27-355, H198P | I232A)
T2 sequence (looked up): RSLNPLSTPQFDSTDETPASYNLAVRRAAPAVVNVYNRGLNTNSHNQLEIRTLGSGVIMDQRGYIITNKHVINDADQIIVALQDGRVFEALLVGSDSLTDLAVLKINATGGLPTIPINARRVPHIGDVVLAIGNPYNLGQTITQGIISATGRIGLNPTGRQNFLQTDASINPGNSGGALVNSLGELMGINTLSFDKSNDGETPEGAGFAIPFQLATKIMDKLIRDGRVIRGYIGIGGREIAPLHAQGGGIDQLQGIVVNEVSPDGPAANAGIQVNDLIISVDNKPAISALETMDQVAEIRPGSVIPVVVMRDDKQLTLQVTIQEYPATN

DegS L164A/H198P = target: T3, DegS L164A/H198P (E. coli, UniProt P0AEE3 27-355, L164A | H198P)
T3 sequence (looked up): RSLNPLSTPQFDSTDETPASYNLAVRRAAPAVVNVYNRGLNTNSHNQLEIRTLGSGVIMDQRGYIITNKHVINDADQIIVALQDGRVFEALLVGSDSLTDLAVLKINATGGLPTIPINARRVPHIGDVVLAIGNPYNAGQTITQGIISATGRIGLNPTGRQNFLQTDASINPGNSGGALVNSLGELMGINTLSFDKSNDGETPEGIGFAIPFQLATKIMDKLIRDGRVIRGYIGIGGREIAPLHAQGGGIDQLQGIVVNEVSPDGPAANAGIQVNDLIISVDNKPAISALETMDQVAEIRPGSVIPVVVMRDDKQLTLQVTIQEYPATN

DegS N197A = target: T4, DegS N197A (E. coli, UniProt P0AEE3 27-355, N197A)
T4 sequence (looked up): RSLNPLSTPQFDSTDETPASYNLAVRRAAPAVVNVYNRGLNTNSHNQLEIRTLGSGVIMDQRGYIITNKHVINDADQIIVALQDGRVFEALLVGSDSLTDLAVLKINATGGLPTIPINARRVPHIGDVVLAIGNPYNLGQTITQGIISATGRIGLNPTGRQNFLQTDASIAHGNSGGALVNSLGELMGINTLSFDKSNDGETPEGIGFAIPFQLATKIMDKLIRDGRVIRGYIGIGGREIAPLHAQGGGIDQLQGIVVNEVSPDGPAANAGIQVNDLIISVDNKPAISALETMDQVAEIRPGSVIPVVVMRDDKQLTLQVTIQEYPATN

B1: fluorescent OMP peptide fluorescein-DNRDGNVYYF (peptide)
peptide: fluorescein-DNRDGNVYYF
B1 showed a Kd [1] of 4 ± 0.4 µM, a Kd (DegS H198P/I232A) of 2.7 ± 0.3 µM and a Kd (DegS L164A/H198P) of 2.5 ± 0.5 µM. It also gave a Kd (DegS N197A) of 1.4 ± 0.1 µM.
